± gives the uncertainty stated by the source.
B1: Ubiquitin-protein ligase residues 30 to 86; numbered along this chain, Q05086 (parent)
chain: KHLIERYYHQLTEGCGNEACTNEFCASCPTFLRMDNNAAAIKALELYKINAKLCDPH

Variants of: B1
Test: abundance fitness (aPCA) (normalised: wild type 0, dead -1); higher = more abundant; growth selection in yeast, the domain comes from the species named
Conditions: Homo sapiens

In order of rising abundance fitness:
1. KHLIERYYHQLTEGCGNEACTNEFCASCPTFLRMDNNADAIKALELYKINAKLCDPH [A39D]  -0.605 ± 0.23
2. KHLIERYYHQLTEGCGNEACTNEFCASCPTFLRMDNNAEAIKALELYKINAKLCDPH [A39E]  -0.393 ± 0.13
3. KHLIERYYHQLTEGCGNEACTNEFCASCPTFLRMDNNAWAIKALELYKINAKLCDPH [A39W]  -0.375 ± 0.081
4. KHLIERYYHQLTEGCGNEACTNEFCASCPTFLRMYNNAAAIKALELYKINAKLCDPH [D35Y]  -0.333 ± 0.12
5. KHLIERYYHQLTEGCGNEACTNEFCASCPTFLRMDNNAQAIKALELYKINAKLCDPH [A39Q]  -0.317 ± 0.12
6. KHLIERYYHQLTEGCGNEACTNEFCASCPTFLRMWNNAAAIKALELYKINAKLCDPH [D35W]  -0.308 ± 0.083
7. KHLIERYYHQLTEGCGNEACTNEFCASCPTFLRMFNNAAAIKALELYKINAKLCDPH [D35F]  -0.265 ± 0.17
8. KHLIERYYHQLTEGCGNEACTNEFCASCPTFLRMDNNAFAIKALELYKINAKLCDPH [A39F]  -0.249 ± 0.17
9. KHLIERYYHQLTEGCGNEACTNEFCASCPTFLRMDNNANAIKALELYKINAKLCDPH [A39N]  -0.242 ± 0.22
10. KHLIERYYHQLTEGCGNEACTNEFCASCPTFLRMDNNAAIIKALELYKINAKLCDPH [A40I]  -0.242 ± 0.16
11. KHLIERYYHQLTEGCGNEACTNEFCASCPTFLRMDNNAYAIKALELYKINAKLCDPH [A39Y]  -0.239 ± 0.18
12. KHLIERYYHQLTEGCGNEACTNEFCASCPTFLRMDNNAHAIKALELYKINAKLCDPH [A39H]  -0.228 ± 0.16
13. KHLIERYYHQLTEGCGNEACTNEFCASCPTFLRMHNNAAAIKALELYKINAKLCDPH [D35H]  -0.213 ± 0.12
14. KHLIERYYHQLTEGCGNEACTNEFCASCPTFLRMKNNAAAIKALELYKINAKLCDPH [D35K]  -0.199 ± 0.13
15. KHLIERYYHQLTEGCGNEACTNEFCASCPTFLRMDNNAAFIKALELYKINAKLCDPH [A40F]  -0.194 ± 0.1
16. KHLIERYYHQLTEGCGNEACTNEFCASCPTFLRMVNNAAAIKALELYKINAKLCDPH [D35V]  -0.187 ± 0.054
17. KHLIERYYHQLTEGCGNEACTNEFCASCPTFLRMINNAAAIKALELYKINAKLCDPH [D35I]  -0.177 ± 0.1
18. KHLIERYYHQLTEGCGNEACTNEFCASCPTFLRMDNNAKAIKALELYKINAKLCDPH [A39K]  -0.175 ± 0.11
19. KHLIERYYHQLTEGCGNEACTNEFCASCPTFLRMPNNAAAIKALELYKINAKLCDPH [D35P]  -0.135 ± 0.1
20. KHLIERYYHQLTEGCGNEACTNEFCASCPTFLRMCNNAAAIKALELYKINAKLCDPH [D35C]  -0.133 ± 0.087
21. KHLIERYYHQLTEGCGNEACTNEFCASCPTFLRMTNNAAAIKALELYKINAKLCDPH [D35T]  -0.112 ± 0.081
22. KHLIERYYHQLTEGCGNEACTNEFCASCPTFLRMDNNALAIKALELYKINAKLCDPH [A39L]  -0.096 ± 0.083
23. KHLIERYYHQLTEGCGNEACTNEFCASCPTFLRMRNNAAAIKALELYKINAKLCDPH [D35R]  -0.095 ± 0.071
24. KHLIERYYHQLTEGCGNEACTNEFCASCPTFLRMNNNAAAIKALELYKINAKLCDPH [D35N]  -0.094 ± 0.094
25. KHLIERYYHQLTEGCGNEACTNEFCASCPTFLRMLNNAAAIKALELYKINAKLCDPH [D35L]  -0.091 ± 0.07
26. KHLIERYYHQLTEGCGNEACTNEFCASCPTFLRMDNNAIAIKALELYKINAKLCDPH [A39I]  -0.085 ± 0.17
27. KHLIERYYHQLTEGCGNEACTNEFCASCPTFLRMQNNAAAIKALELYKINAKLCDPH [D35Q]  -0.084 ± 0.13
28. KHLIERYYHQLTEGCGNEACTNEFCASCPTFLRMDNNAGAIKALELYKINAKLCDPH [A39G]  -0.084 ± 0.086
29. KHLIERYYHQLTEGCGNEACTNEFCASCPTFLRMDNNAVAIKALELYKINAKLCDPH [A39V]  -0.084 ± 0.1
30. KHLIERYYHQLTEGCGNEACTNEFCASCPTFLRMDNNAALIKALELYKINAKLCDPH [A40L]  -0.083 ± 0.076
31. KHLIERYYHQLTEGCGNEACTNEFCASCPTFLRMDNSAAAIKALELYKINAKLCDPH [N37S]  -0.072 ± 0.069
32. KHLIERYYHQLTEGCGNEACTNEFCASCPTFLRMANNAAAIKALELYKINAKLCDPH [D35A]  -0.067 ± 0.074
33. KHLIERYYHQLTEGCGNEACTNEFCASCPTFLRMDNNATAIKALELYKINAKLCDPH [A39T]  -0.065 ± 0.1
34. KHLIERYYHQLTEGCGNEACTNEFCASCPTFLRMDNNAMAIKALELYKINAKLCDPH [A39M]  -0.065 ± 0.087
35. KHLIERYYHQLTEGCGNEACTNEFCASCPTFLRMMNNAAAIKALELYKINAKLCDPH [D35M]  -0.058 ± 0.1
36. KHLIERYYHQLTEGCGNEACTNEFCASCPTFLRMDNNARAIKALELYKINAKLCDPH [A39R]  -0.053 ± 0.06
37. KHLIERYYHQLTEGCGNEACTNEFCASCPTFLRMGNNAAAIKALELYKINAKLCDPH [D35G]  -0.039 ± 0.061
38. KHLIERYYHQLTEGCGNEACTNEFCASCPTFLRMENNAAAIKALELYKINAKLCDPH [D35E]  -0.026 ± 0.079
39. KHLIERYYHQLTEGCGNEACTNEFCASCPTFLRMDNNAAKIKALELYKINAKLCDPH [A40K]  -0.023 ± 0.13
40. KHLIERYYHQLTEGCGNEACTNEFCASCPTFLRMSNNAAAIKALELYKINAKLCDPH [D35S]  -0.022 ± 0.07
41. KHLIERYYHQLTEGCGNEACTNEFCASCPTFLRMDNQAAAIKALELYKINAKLCDPH [N37Q]  -0.016 ± 0.093
42. KHLIERYYHQLTEGCGNEACTNEFCASCPTFLRMDNNAADIKALELYKINAKLCDPH [A40D]  0.025 ± 0.11
43. KHLIERYYHQLTEGCGNEACTNEFCASCPTFLRMDNNAANIKALELYKINAKLCDPH [A40N]  0.041 ± 0.14
44. KHLIERYYHQLTEGCGNEACTNEFCASCPTFLRMDNNAAGIKALELYKINAKLCDPH [A40G]  0.046 ± 0.063
45. KHLIERYYHQLTEGCGNEACTNEFCASCPTFLRMDNNAACIKALELYKINAKLCDPH [A40C]  0.067 ± 0.11
46. KHLIERYYHQLTEGCGNEACTNEFCASCPTFLRMDNNAAEIKALELYKINAKLCDPH [A40E]  0.159 ± 0.098
